Tests used:
[1] = biological target: human recombinant EGFR/Fc chimera (R&D systems, cat. no 344-ER) (human) (UniProt P00533); experiment: fluorescence polarization, 5 nM dye-labelled ligand, EGFR/Fc titrated 0-258 nM, in solution
human EGFR = biological target: T1, human EGFR (Homo sapiens, UniProt P00533); experiment: Fluorescence polarization binding assay; conditions: dye-labelled ligand 5 nM; human recombinant EGFR/Fc chimera 0-258 nM; 10 min at 30° C.; triplicates; read-out: Kd value towards human EGFR
T1 construct: purchased R&D systems 344-ER
Description: The fluorescence polarization binding measurements were performed as triplicates in 384-well microplates in a volume of 40 μL in binding buffer (PBS, 0.01% Tween-20, pH 7.5) using a Tecan Safire fluorescence polarisation plate reader at ex646/em678 nm. The concentration of dye-labelled ligand was held constant (5 nM) and the concentrations of the target (human recombinant EGFR/Fc chimera from R&D systems, cat. no 344-ER) was varied from 0-258 nM. Binding mixtures were equilibrated in the microplate for 10 min at 30° C.
Data fitting was performed via nonlinear regression using SigmaPlot software (version 10) to obtain the Kd value.

| Substance | Kd [1] | Kd (human EGFR) |
| --- | --- | --- |
| anti-EGFR Affibody His6-ZEGFR:1907-Cys(Cy5**) (Compound 14) (designed binder) | 4.1 nM |  |
| anti-EGFR Affibody His6-ZEGFR:1907-Cys(Cy5**) [Compound 14] |  | 4.1 nM |
